This is an account of results in article PMC11618752 (2024).

The experiment has as its target XPO1 protein, recombinant (UniProt O14980 1-1071). Briefly: ITC.

XPO1 protein, recombinant, sequence (O14980 whole entry): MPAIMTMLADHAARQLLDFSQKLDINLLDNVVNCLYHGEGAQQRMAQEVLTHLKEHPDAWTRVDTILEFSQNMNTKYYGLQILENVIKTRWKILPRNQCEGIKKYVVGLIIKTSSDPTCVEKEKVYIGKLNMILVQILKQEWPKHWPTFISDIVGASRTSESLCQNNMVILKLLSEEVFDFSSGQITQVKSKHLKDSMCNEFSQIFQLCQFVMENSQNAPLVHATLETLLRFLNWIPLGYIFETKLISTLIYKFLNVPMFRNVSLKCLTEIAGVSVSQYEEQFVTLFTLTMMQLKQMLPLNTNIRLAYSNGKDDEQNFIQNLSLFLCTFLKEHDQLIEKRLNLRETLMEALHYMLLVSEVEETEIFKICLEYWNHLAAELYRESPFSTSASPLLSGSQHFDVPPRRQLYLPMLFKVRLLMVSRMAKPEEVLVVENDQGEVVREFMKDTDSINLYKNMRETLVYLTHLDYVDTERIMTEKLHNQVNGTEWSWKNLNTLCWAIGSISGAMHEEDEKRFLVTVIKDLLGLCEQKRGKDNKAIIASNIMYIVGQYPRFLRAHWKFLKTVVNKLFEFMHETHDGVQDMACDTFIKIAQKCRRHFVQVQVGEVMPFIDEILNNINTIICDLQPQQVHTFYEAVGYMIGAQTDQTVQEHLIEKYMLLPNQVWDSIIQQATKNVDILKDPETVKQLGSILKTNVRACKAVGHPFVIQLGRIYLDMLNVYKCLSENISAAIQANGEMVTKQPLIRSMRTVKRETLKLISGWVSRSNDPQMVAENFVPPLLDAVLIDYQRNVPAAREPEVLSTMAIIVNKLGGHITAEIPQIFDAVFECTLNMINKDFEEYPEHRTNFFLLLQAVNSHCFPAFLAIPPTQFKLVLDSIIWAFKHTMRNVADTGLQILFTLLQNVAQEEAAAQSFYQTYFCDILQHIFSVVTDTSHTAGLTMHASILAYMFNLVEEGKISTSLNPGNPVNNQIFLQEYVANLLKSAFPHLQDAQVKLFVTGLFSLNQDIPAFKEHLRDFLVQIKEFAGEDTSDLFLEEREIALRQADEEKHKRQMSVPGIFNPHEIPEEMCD

In the case of LLFALKVLNM [NES peptide (173–182 aa of TIRR)], the dissociation constant (Kd) was found to be 45 µM.
